Test results reported in patent US20230159654A1 (INTERNATIONAL DRUG DEVELOPMENT BIOTECH, published 2023).

How the values were obtained:
human Clq [1] = target: T1, human Clq (human, UniProt P02745 23-245; P02746 28-253; P02747 29-245); test: ELISA, MAb coated on plate, human Clq in solution, detected with anti-human Clq peroxidase conjugate
T1 construct: also called Clq complement; C1q
Protocol: (§1) The Binding of Human Clq to MAbs was assessed by an ELISA binding assay. The 96-well plates (Nunc) were coated overnight at 4° C. with varying MAb concentrations. After washing, the plates were blocked with PBS-5% BSA for 1 h, and incubated for 1 h with 0.2 μg/ml of recombinant human Clq (Abd Serotec) or 2.5 μl of natural human complement (Sigma). Then, 100 μl of a 1/500 dilution of sheep anti-human Clq peroxidase-conjugated Ab (Abd Serotec) added and incubated for 1 h. The plates were developed with 100 μl per well of TMB substrate (Uptima Interchim). After H₂SO₄ addition, the OD was measured at 450 nm/630 nmusing a MRX II microplate reader.

human Clq [2] = target: T1, human Clq; test: ELISA, MAb coated on plate, human Clq in solution, detected with anti-human Clq peroxidase conjugate; chR007 Fc0 is the weaker reference
Protocol: as §1

T1 sequence (P02745 23-245 limits assumed, chain 1 of 3): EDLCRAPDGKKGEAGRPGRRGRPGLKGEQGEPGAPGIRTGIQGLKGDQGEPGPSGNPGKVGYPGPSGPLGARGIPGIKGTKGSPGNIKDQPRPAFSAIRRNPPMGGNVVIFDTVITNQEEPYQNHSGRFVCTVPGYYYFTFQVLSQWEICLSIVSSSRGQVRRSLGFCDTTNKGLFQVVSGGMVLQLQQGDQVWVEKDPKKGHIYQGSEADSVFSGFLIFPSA
T1 sequence (P02746 28-253 limits assumed, chain 2 of 3): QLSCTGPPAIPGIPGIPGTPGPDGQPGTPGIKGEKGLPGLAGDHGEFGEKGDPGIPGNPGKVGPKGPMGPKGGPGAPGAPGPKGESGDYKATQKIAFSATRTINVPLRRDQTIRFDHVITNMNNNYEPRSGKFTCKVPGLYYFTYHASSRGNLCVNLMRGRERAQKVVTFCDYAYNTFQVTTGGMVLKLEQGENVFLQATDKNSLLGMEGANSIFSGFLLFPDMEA
T1 sequence (P02747 29-245 limits assumed, chain 3 of 3): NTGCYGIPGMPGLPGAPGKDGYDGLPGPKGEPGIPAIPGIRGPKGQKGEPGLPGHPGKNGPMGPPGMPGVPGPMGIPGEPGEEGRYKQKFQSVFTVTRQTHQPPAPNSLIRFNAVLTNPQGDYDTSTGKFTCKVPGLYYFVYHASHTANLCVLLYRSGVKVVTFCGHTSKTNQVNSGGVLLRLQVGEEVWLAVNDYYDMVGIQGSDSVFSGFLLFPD

Row | binding result (human Clq [1]) | binding result (human Clq [2]) | Binder
1 | binds |  | chR007 Fc24 (antibody, human IgG1, kappa, also called chimeric chR007 Fc24) heavy: EVKLEESGGGLVQPGGSMKLSCVASGFTFSNYWMNWVRQSPEKGLEWVAEIRLKSNNYATHYAESVKGRFTISRDDSRSSVYLQMNNLRAEDTGIYYCTRDWEFAYWGQGTLVTVSSASTKGPSVFPLAPSSKSTSGGTAALGCLVKDYFPEPVTVSWNSGALTSGVHTFPAVLQSSGLYSLSSVVTVPSSSLGTQTYICNVNHKPSNTKVDKKVEPKSCDKTHTCPPCPAPELLGGPSVFLLPPKPKDTLMISRTPEVTCVVVDVSHEDPEVKFNWYVDGVEVHNAKTKPPEEQYNSTLRVVSLLTVLHQDWLNGKEYKCKVSNAALPAPIAKTISKAKGQPREPQVYTLPPSRDELTKNQVSLTCLVKGFYPSDIAVEWESNGQPENNYKTTPLVLDSDGSFFLYSKLTVDKSRWQQGNVFSCSVMHEALHNHYTQKSLSLSPGK light: DIVLTQSPASLAVSLGQRATISCRTSESVDNYGSSSMNWFQQKPGQPPKLLIYRASNLDSGIPARFSGSGSRSDFTLTINPVEADDVATYYCQQSNEDLPYTFGGGTKLEIKRTVAAPSVFIFPPSDEQLKSGTASVVCLLNNFYPREAKVQWKVDNALQSGNSQESVTEQDSKDSTYSLSSTLTLSKADYEKHKVYACEVTHQGLSSPVTKSFNRGEC
2 |  | binds | chR007 Fc0 (antibody, human IgG1, kappa, Chimeric anti-CD5 IgG1 with native human IgG1 Fc; also called native chimeric MAb chR007 Fc0) heavy: not shown light: DIVLTQSPASLAVSLGQRATISCRTSESVDNYGSSSMNWFQQKPGQPPKLLIYRASNLDSGIPARFSGSGSRSDFTLTINPVEADDVATYYCQQSNEDLPYTFGGGTKLEIKRTVAAPSVFIFPPSDEQLKSGTASVVCLLNNFYPREAKVQWKVDNALQSGNSQESVTEQDSKDSTYSLSSTLTLSKADYEKHKVYACEVTHQGLSSPVTKSFNRGEC
3 | binds |  | humanized 7Hz116 Fc24 (antibody, human IgG1, kappa, V domains shown) VH: EVQLVESGGGLVQPGGSLKLSCAASGFTFSNYWMHWVRQASGKGLEWVAEIRSKANSYATAYAASVKGRFTISRDDSKNTAYLQMNSLKTEDTAVYYCTRDWEFAYWGQGTLVTVSS VL: DIVMTQSPDSLAVSLGERATINCKSSQSVDNYGSSSLAWYQQKPGQPPKLLIYRASNLDSGVPDRFSGSGSGTDFTLTISSVQAEDVAVYYCQQSNEDLPYTFGQGTKLEIKR
